Source: patent US8247168B2, “Regulation of gene expression by protein methylation” (University of Southern California, priority 1998, dated 2012)

Experiments:
histone H3 = molecular target: T1, histone H3 (Bos taurus, UniProt P68432); assay: Identification of methylated amino acids in histone H3 by thin layer chromatography of the hydrolyzate; format: biochemical, calf; conditions: histone H3 methylated by CARM1, thin layer chromatography
T1 construct: A 3.2-kb partial CARM1 cDNA clone with an open reading frame of 606 amino acids (CARM1(3-608)); purchased Boehringer Mannheim; host or cells: histone H3 from calf thymus; GST-CARM1 made in E. coli BL21
Experimental: Histone H3 was incubated for 60 min at 30° C. in a 100 μl methylation reaction as described in FIG. 8, containing 0.024 mg/ml GST-CARM1 and 0.63 mg/ml H3. The reaction was stopped with 25 μl of 3% (v/v) trifluoroacetic acid (TFA), 15% (v/v) acetonitrile, and 100 μl was injected into a 3 cm×4.6 mm RP-300 reversed-phase guard column (Perkin Elmer-Brownlee) equilibrated with 80% solvent A (0.3% TFA in water) and 20% solvent B (0.3% TFA in acetonitrile). Methylated H3 was separated from unreacted S-adenosylmethionine using a gradient of 20-80% solvent B over 5 min at a flow rate of 1.0 ml/min. H3 eluted as a broad complex peak detected by monitoring absorbance at 214 nm. The H3 pool was reduced to dryness in a vacuum centrifuge and then subjected to acid hydrolysis in 6 N HCl at 112° C. for 20 h. […] Radioactivity in the fractions was determined by liquid scintillation counting, and peak identity was determined by comparison to derivatized standards including the three major forms of methylarginine and methyllysine. […] Radioactive spots corresponding to the positions of the three forms of methylarginine (which all separated from each other) were removed by scraping the chromatogram, and quantified by liquid scintillation counting. […]

[1] = tested on: androgen receptor, estrogen receptor, and thyroid hormone receptor; assay: Reporter gene activation by hormone-activated nuclear receptors in transiently transfected CV-1 cells; format: cell-based; conditions: co-expression of CARM1 with the NR and GRIP1, over NR+GRIP1 (lane e)
Experimental: (A) Transient transfection assays with CV-1 cells were performed as in FIG. 5 with 0.5 μg of GK1 reporter gene and 0.5 μg of each of the indicated vectors. (B) CV-1 cells were transiently transfected as in FIG. 5 with the following vectors, as indicated: 0.5 μg of nuclear receptor expression vector pSVAR0 (Brinkmann, A. O. et al. (1989) J. Steroid Biochem. Molec. Biol. 34:307) expressing AR, pHE0 (Green, S. et al. (1988) Nucleic Acids Res. 16:369) expressing ER, or pCMX.hTRβ1 (Feng, W. et al. (1998) Science 280:1747) expressing TR; 0.5 μg of a luciferase reporter gene with an appropriate promoter, MMTV promoter for AR, or MMTV promoter with the native glucocorticoid response elements replaced by a single estrogen response element for ER or palindromic thyroid hormone response element for TR (Umesono, K. and R. M. Evans (1989) Cell 57:1139); 0.5 μg of pSG5.HA-GRIP1; and 0.5 μg of pSG5.HA-CARM1 or pSG5.HA-CARM1 (VLD mutant). Transfection efficiency was monitored by using βgalactosidase activity expressed from 0.1 μg of co-transfected pCMV-βgal vector (Hong, H. et al. (1996) Proc. Natl. Acad. Sci. USA 93:4948-4952) as an internal control. After transfection, cells were grown in charcoal-treated serum; where indicated 20 nM hormone (H), i.e. dihydrotestosterone for AR, estradiol for ER, or triiodothyronine for TR, was included during the last 40 h of culture. […]

B1: CARM1: novel murine protein arginine methyltransferase and transcriptional coactivator, 608 amino acids (protein, listed as Mus musculus)
chain: MAAAAATAVGPGAGSAGVAGPGGAGPCATVSVFPGARLLTIGDANGEIQRHAEQQALRLEVRAGPDAAGIALYSHEDVCVFKCSVSRETECSRVGRQSFIITLGCNSVLIQFATPHDFCSFYNILKTCRGHTLERSVFSERTEESSAVQYFQFYGYLSQQQNMMQDYVRTGTYQRAILQNHTDFKDKIVLDVGCGSGILSFFAAQAGARKIYAVEASTMAQHAEVLVKSNNLTDRIVVIPGKVEEVSLPEQVDIIISEPMGYMLFNERMLESYLHAKKYLKPSGNMFPTIGDVHLAPFTDEQLYMEQFTKANFRYQPSFHGVDLSALRGAAVDEYFRQPVVDTFDIRILMAKSVKYTVNFLEAKEGDLHRIEIPFKFHMLHSGLVHGLAFWFDVAFIGSIMTVWLSTAPTEPLTHWYQVRCLFQSPLFAKAGDTLSGTCLLIANKRQSYDISIVAQVDQTGSKSSNLLDLKNPFFRYTGTTPSPPPGSHYTSPSENMWNTGSTYNLSSGVAVAGMPTAYDLSSVIAGGSSVGHNNLIPLANTGIVNHTHSRMGSIMSTGIVQGSSGAQGGGGSSSAHYAVNNQFTMGGPAISMASPMSIPTNTMHYGS
radiolabel migrating with N^G,N^G-dimethylarginine (histone H3): approximately 70% | radiolabel migrating with N^G-monomethylarginine (histone H3): 30% | further enhancement of reporter gene expression [1]: 2 to 4 fold
